The DeepSol protein solubility set

Test: soluble on expression in E. coli; label from the status in PepcDB or PDB records

Row | Sequence | soluble on expression in E. coli
1 | MPLIRNYDYYDLLNVAPSTSAHRPTVMVTSSRSYMEPQKSRIYYGKNEWRGGNTTIHDPTEFEETTMDKNANEIAGDDKRKKKRWRDLLFPNSRHSSRKDKENSNVSVATRSLSSVSFRSEKPSRRRESGSLSRHRYIPPPPLPMPPRRIMTSTSMGYSDDAMTSSSSHTTTDYDDIVPVPTPSYVIYPAASIAQASRRQQQGSAKNRIFRSPTYHHDAFVNSHEWTLSRSISEMKLGIVGTSQSGKTALVHRYLTGTYTPDESPEGGRFKKEVVIEGQSHLLLIRDEGQQHLDVQFCQWVDAVVFVFNVCSIQSYDSIQALAHEMSKYRNISDLPLILVGTKDHISEKRARVITEDEGRQLAAQMKRCSYFETSSTYGTNVERVFKEACCKIIQLRVRSQVGAAAAASSQARTPTPTHSESGGRKDYQDPSRYISSNSFVMPSNMRPSFPSNSTRRNTVHHRGEHPQQQQYQQQPPSSSRTASERSMSAMLGTPYGNRMPAGVSPSASQKSVHSIANGCYSRSSAALLDSDTPAVNSYLIDSMSSAGFPLSQSGANQVSASTSHLPTPSSTPNTQRKNRRISNIFRQKDHQEEKSKMIESLNLGIGRAIPIKQGNLYKKSSKSALNREWKKKYVCLYSDGRLTYHTNLKEYMDKTAHGKEMDLKLATIRITGRLHPLHSHRVASSVDPMNGGGGGGTPTLKSYEPRRSDVGANSGDGTSGGGSDDAIKENQRQHFSPPAMPQTVAGKKKRESRKIGTNSKHNDEEDECFEVINNCLMRWEFCAGSLEERDEWIQAIGGEIEKSLGKEVANAKTNNRAVANRPDIAALRSIPGNGRCADCGNPSSEWASINLGIIICIECSGIHRNLGSHISKVRGLELDQWPVEHLAVMQAIGNDKANEMWEFGLLNGERKPTPESSREEKERFIDRKYVQKAFLKPIASGEPVTSQLISAVLARDVMSLNVLLANGMSVEEINTTTKDGRTVLHLAASIGSVELAQLLIWHNADAQILDNNGRSCLFYARSNGFREVFDMLVTAGLSPDYGLPQEINDFSQMPEFFAMGSTSNRDYSTSGDEMYGSRRISMGPPPQVPARRYLPQQPELDETSVI | not soluble
2 | MPLNHYQQEVGPSLADTSPGKMPDVALLEGRYCSVEHLTVAEHYEDILDFYFTNQILSDWTYMYADPFESEEAVRQCLEDYEQSQNPYFFAIRDKASGKVLGTFSLMAITPKNRSVEMGRVILAPALQKTRAATEAQYLLMKYVFEDLNYRRYEWKCDKSQPPFCQCSHSFRVHL | not soluble
3 | MPLTFAHSFADAVPSLSVPWRAEQWPDPRIIVFNHELGQELGIDEASLLSNITQQGHAQAYSGHQFGQFNPLLGDGRALVLGDCAQTNAPHGQFEISLKGSGPTPFARRGDGRATLGPMLREYLISEALHGLGIPTTRSLAVITTGTDVQRERLLPGAVVVRVAQNHLRVGSVQCAAMRDDDSLAALVRYALSSHEDGVSDAEAAGLLLRRVSTSQAKLVAQWMRFGFVHGVMNTDNVTLSGQTIDFGPCAFIDSFHPQAVFSSIDSHGRYSFGRQPSIMGWNIARLAEALLPLMSIDEARNIVHEFPDMYRRSWLDEMADAVGISPDDDHAAGVLDDLVALLDVHRPDYAQFMRSLSDGTTVSLFPWAQQWEAEVSSLRVAAPRNPVYVPRNYLVEDALEHAMNADMSVFSLLVEAGKNPYLREKRFEKLENPAPETWQDYVTYCGTLEHHHHHH | soluble
4 | MPMFTSFDHQMMSRAIELAWRGRFTTSPNPNVGCVITRGEQIVGEGFHFRAGEPHAEVHAMRQAGELTRGATAYVTLEPCSHYGRTPPCAEGLIKAGVAKVICAMQDPNPQVAGKGVQMLRDAGIEVEVGLLEADARVLNRGFLKRMETGMPFVQLKMAASLDGQTALANGKSQWITSPAARKDVQRFRAQASAILSTSQTVLADNASLAVRWYDLPSSVQAQYAEADLRQPLRVILDRQHQLHPELALYQTPSPVLRVASENAELCISAENGKLDLRELLALLAQQHNVNQLWVEAGSQLAQSLIEQKLVDEIILYLAPKLMGSDGRGLFGALGLTEMAEAIELKIEDCRMVGADLRIIATPKTKD | not soluble
5 | MPNIKIFSGSSHQDLSQKIADRLGLELGKVVTKKFSNQETCVEIGESVRGEDVYIVQSGCGEINDNLMELLIMINACKIASASRVTAVIPCFPYARQDKKDKSRAPISAKLVANMLSVAGADHIITMDLHASQIQGFFDIPVDNLYAEPAVLKWIRENISEWRNCTIVSPDAGGAKRVTSIADRLNVDFALIHKERKKANEVDRMVLVGDVKDRVAILVDDMADTCGTICHAADKLLSAGATRVYAILTHGIFSGPAISRINNACFEAVVVTNTIPQEDKMKHCSKIQVIDISMILAEAIRRTHNGESVSYLFSHVPLLEHHHHHH | soluble
6 | MPNNEASEEAKWYVVHTYSGYENKVKANLEKIVENRNLQDYILDIVVPMEEQIEIKDGKKKASLKKVFPGYVLVKMIMNDESWYVVRNTRGVTGFVGPGSKAVPLTDEEIRAMGVEEFAPVLDYEVGDNVRVVSGPLENFIGIVEEINLEKKKVRVSVSMFGRETPVELELHQIQKI | soluble
7 | MPNYPFPILWLPPKPLGHLLRNMDFRNLIIFSLTSKPAKWLTELLNMDAPMISVHVDHQINIIVSSVKSVTYHASNGSLRESRGKIDRQINFPGSLKQFVEHLLHIFKEHKIDDLEIMCNSVYQYKPDIQALKGIKMRTLKLRYQESILKMFGTSADRIEFSTIKSAELENSKDILIQNFDYLKFDFEGSLTADNLIGINGKVVNIWAADIEMKDVNIFLKHWLKGSNPRLEKLILKTYRLDTDGNSVEDSVADLFRDLDCESIAESQFEILRDDESIAKISILEHGYWYNKIHCYFSLNEAMNLYTTYFWDIVHLQEKILH | not soluble
8 | MPPYTVVYFPVRGRCAALRMLLADQGQSWKEEVVTVETWQEGSLKASCLYGQLPAFQDGDLTLYQSNTILRHLGRTLGLYGKDQQEAALVDMVNDGVEDLRCKYISLIYTNYEAGKDDYVKALPGQLKPFETLLSQNQGGKTFIVGDQISFADYNLLDLLLIHEVLAPGCLDAFPLLSAYVGRLSARPKLKAFLASPEYVNLPINGNGKQ | soluble
9 | MPQVAGGRPRPPRGFRDFPPEVMILRKRLLSRLERVFESYGFDPLDTPAVEYWETLSGKYGEEAESRLIWRFQDPWSGRWYALRYDLTVPLARFVASNPGLPMPFKRYHIGKVWRHEEPQKGRYREFVQCDADIVGSPYPEADAEIVSLAVDSIDALGLPGFRVRVNDRRLLAGVFEEELGFDNPLPIYRAIDKLDKIGVEGVRRELERLGLPGSTVERIMEIISWRGRPGEVLESVRRGYGSNEKVREALDHLEEMLSLADDKRVELDMSLVRGLDYYTGPILEVVLDEPRIGSVAGGGRYDGLVGMFAGRDIPATGVSIGIERIIDAGLELGVYSLDVKTVAQVAVVVLDRRYYRYAWEAARILRRGGLNVRIDLSRASGQVQRRKASRLGIPVLAFVGAKEAEGGFLTLYSAAKGERVAVPLGEAVKAVERLLPS | soluble
10 | MPRELGESLELRKGRHSVVYLTEKYAIKQFHERFRYNFLKEVKFLTLLQPFFFTPKLYFVDFANLRIVMERLRGRRFDEAFIRKAVERALEACFIMDVMGVEKQEMNHPDKHIIVGDDVYLIDFERARFKDRPSNLTQFCMYLRRFGIEIEKTLLKDYKTSVNCENFSRILHSVVEKLK | not soluble
11 | MPRTDLPFDELIIREYLLDNPDFFNRYPELLLAMRLPHLERGAISLVERRQELLRQRVNQLEEEITSLLTMAARNEKIFLFNTELSFKLLNCVNLESLKEVLADNLKAQFNFTHVRLISVLEADVEMKAIWAERLRKEYYFGRLTQQEAKRLFGSEVGSVALVKLADDIPVIFAVASHDATHFHPDMDNMLLEQIRRLLAHMLAKLAAALEHHHHHH | not soluble
12 | MPSAAPSSSVLLVQISDSHLFAEADGALLGMSTRDSLEKVVDLVLAEQPQVDLVVASGDISQDGSVESYEAFRRISTQIAAPARWFAGNHDELPQMEHVAQAEGLLEPIINIGRWRVTLLDSAVPGSVPGFLAAGQLQLLEQSLSEAPDRHHLVCLHHHPVAIGCEWMTPIGLRNADALFAVLDRFPQVRAVLWGHVHQEFDQMRNGVRLLASPSTCIQFAPGSADFKVDTTAPGYRWLRLHDDGRLETAVSRVVGMQFEVDYGGTGY | not soluble
13 | MPSISKTKSGERYRAPTDQARKMDRKKENKRNKKDRQQIRQAMAKYCNLDETTSKLLALERQILGLDPQPFHIDVLRKKQKVLTDSINKRRMTLQQGKEDAELKKFNDKINAYQSDCQKLAVLAQQARLAREADPDMIPLPMGDVSTAGPERNNQLLAPAMIKRKVEFQLPPRPVRVAGQKPPGPPCGLAPNFSDSEEEEEEVHDDHYDDIDLAPVPIPEFDNPYQPIHRNYGPPSSYNSMPTRMPHHHHHHHPHASSHYNPMGFQNHHEEAVISSAPQINRSNEPAAPATLSAAPELRNLRRETVKLVPAQLLRRPGDNKTIVPRQAAPVQRRPEVQKQAKNTDEAYNDFMKELDGLI | not soluble
14 | MPSKQVGWWTMSEHTNDEVQPTALSGNDAVNRAAEQWKESAHRNIPGLGDLPIPDDTANLREGPNLHDGLLALLPLVGVWRGTGHADTAEEGQYAFGQQITFAHDGENYLTYESRIWKLDDEGNSTDLDYRESGFWRISLKDEIEVVLTHSTGVAEIFYGEPMNERAWQIESASTMVTAQGPATLGPGKRLYGLMPNNNLGWVDERMVDGEMRPRMSAELSRVIG | not soluble
15 | MPTALIADDEPNLSAELAERLAELWPELEIVAMPRNGVDTLAALNAARPDIAFLDIRMPGIDGLKLASLVPDVHVVFVTAYDEYAVEAFDRSAIDYLLKPVTDERLLRCIAKLQRGGFAPPGAQALSDARMPKEPTLIRWLTVGLKDTTRLVSVDDVLYFQALDKYTEVVTAGERHVIRTPLKELLQRLDQDRFAQVHRGVIVAYAAIDRIERDLLGRLCIHLHGHRDVLPVSRAYAGLFKHM | not soluble
16 | MPTDKEGDFIDPKEQEESLENIFSSLNDFQEKTDANAQKNEQKNEQEEEQRRLKEQQRLRKNQKNQEMLKGLQQNLNQFAQKLESVKNKTLDLQIPKQDGVDEKAYQEWYAQIYQILYKGWKGVFYHKASVSALIMIAKDGEFDYTILSYSDFKDYNKSVMTLLNDLKKVDFPPYPGGSMISIQVNFTTKEEQ | not soluble
17 | MPTLTARSVIPPYMLRRIIEHGSLPQRDCALHTLNHVQSLLGNKPLRAPGAKTSTGGEVIRDIYDAENSTQLPGKQVRNEGQASNHDVAVDEAYDYLGVTYDFFWQAFKRNSLDNQGLPLTGSVHYGKEYQNAFWNGQQMVFGDGDGEIFNRFTIAIDVVGHALAHGVTESEAGLIYFQQAGALNESLSDVFGSLVKQFHLKQTADKADWLIGEGLLAKGINGKGLRSMSAPGTAYDDPLLGKDPQPASMKDYIQTKEDNGGVHLNSGIPNRAFYLAATALGGYAWEKAGYIWYDTLCDKALPQDADFATFARTTVKHAEQRFDSKVAQKVQQAWHQVGVA | soluble
18 | MPTYEELSQAVFEGDEAQVVELTRSLLSGGAEPLEVINKGLIAGMDRVGVLFKNNEMFVPEVLMSANAMNAGVEVVKQSQQAFDMPSVGKIVLGTVKGDLHDIGKNLVAMMLESGGFTVYNLGVDIEPGKFVEAVKKYQPDIVGMSALLTTTMMNMKSTIDALIAAGLRDRVKVIVGGAPLSQDFADEIGADGYAPDAASATELCRQLLE | soluble
19 | MPVAPNPLLQANAIAKTSRSATVQADKPLQALGDKGDAFGQVMARQGRDKVTGQDDKVAQAKPKDKPDAAAGGKKDPAGKAAVADDGNKLPEEDSAQADTGVRDASLVAGQVTDAQPGAQLIQAQAEAVAPVLQAATAQTQVSAALPEEPSAEEAFDPDADPLANLPTLRLALEHSAQAKGGTSAHALDAAQAQGEEGQAAVNTLANLVEDTDGESAESGGKAFGALLEDGLKDTKSASSDTRIDDFANRLASLTQAATAKTANAVPATANPLHQPLPMNQNAWAEGLVNRVMYLSSQNLKSADIQLEPAELGRLDIRVNVAADQATQVTFISGHAGVRDALDSQVHRLRELFAQQGLAQPDVNVADQSRGQQQQQGQAQGSNLSGVAARRAEQGGAEAVDSARPLEQQVVVGDSAVDYYA | not soluble
